Results reported in patent US20150111836.

Biological target: purified recombinant N-terminal His6 tagged HIV-1 HXBII Vif protein (E. coli)

B1: purified recombinant A3G-His6 (human APOBEC3G with C-terminal Myc-His6 tag, expressed in 293T cells) (protein)
chain: MKPHFRNTVERMYRDTFSYNFYNRPILSRRNTVWLCYEVKTKGPSRPPLDAKIFRGQVYSELKYHPEMRFFHWFSKWRKLHRDQEYEVTWYISWSPCTKCTRDMATFLAEDPKVTLTIFVARLYYFWDPDYQEALRSLCQKRDGPRATMKIMNYDEFQHCWSKFVYSQRELFEPWNNLPKYYILLHIMLGEILRHSMDPPTFTFNFNNEPWVRGRHETYLCYEVERMHNDTWVLLNQRRGFLCNQAPHKHGFLEGRHAELCFLDVIPFWKLDLDQDYRVTCFTSWSPCFSCAQEMAKFISKNKHVSLCIFTARIYDDQGRCQEGLRTLAEAGAKISIMTYSEFKHCWDTFVDHQGCPFQPWDGLDEHSQDLSGRLRAILQNQEN
B1 was tested, and the “A3G-mediated deamination of the ss-deoxyoligonucleotide substrate” value was “Vif inhibits A3G deaminase activity in a dose-dependent manner”.
